Source: article PMC4598844, “BAP1 promotes breast cancer cell proliferation and metastasis by deubiquitinating KLF5” (Nature Communications, 2015)

Molecular target: T1, GST-BAP1, purified recombinant (human, UniProt Q92560 1-729)
T1 construct: BRCA1-associated protein 1 (BAP1), human, wild type, cloned from MCF10A cells into pGEX-6p-1; also called purified GST-BAP1; source: E. coli BL21 (DE3), purified (glutathione sepharose 4B)
T1 sequence (looked up): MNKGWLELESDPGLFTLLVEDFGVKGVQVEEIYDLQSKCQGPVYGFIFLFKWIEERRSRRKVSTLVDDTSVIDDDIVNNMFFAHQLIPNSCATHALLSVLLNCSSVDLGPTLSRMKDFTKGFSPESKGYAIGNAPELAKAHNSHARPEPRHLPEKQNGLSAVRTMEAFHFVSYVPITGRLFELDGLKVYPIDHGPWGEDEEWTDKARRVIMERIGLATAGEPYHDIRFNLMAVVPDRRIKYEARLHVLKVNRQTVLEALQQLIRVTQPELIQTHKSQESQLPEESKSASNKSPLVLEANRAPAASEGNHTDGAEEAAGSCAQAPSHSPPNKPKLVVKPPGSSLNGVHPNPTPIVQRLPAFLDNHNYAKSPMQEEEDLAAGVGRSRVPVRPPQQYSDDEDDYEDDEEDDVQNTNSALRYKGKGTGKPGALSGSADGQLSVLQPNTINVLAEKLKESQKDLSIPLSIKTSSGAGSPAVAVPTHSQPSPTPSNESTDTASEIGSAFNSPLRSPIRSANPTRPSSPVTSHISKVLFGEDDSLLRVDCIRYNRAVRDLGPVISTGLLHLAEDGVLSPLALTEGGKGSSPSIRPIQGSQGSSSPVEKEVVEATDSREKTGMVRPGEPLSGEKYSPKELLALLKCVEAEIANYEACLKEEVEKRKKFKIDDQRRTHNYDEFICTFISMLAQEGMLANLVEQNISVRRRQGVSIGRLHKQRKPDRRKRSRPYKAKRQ
Assay: pull-down; purified recombinant GST-BAP1 (and GST) pulled down with glutathione beads; KLF5-6 × His detected by WB
Conditions: both partners purified

B1: KLF5-6 × His, purified recombinant (natural protein)
chain: not shown
notes: Krüppel-like zinc-finger transcription factor 5 (KLF5), subcloned into the pET28-3C vector; The tag is printed after the protein's name; not repeated for this construct; source: E. coli BL21 (DE3), purified (Ni-NTA)
B1: binds.
